Experimental data from patent US5668265, “Bi-directional oligonucleotides that bind thrombin” (Becton Dickinson and Company).

Molecular target: alpha-thrombin (Homo sapiens, UniProt P00734;P00734 P00734:315-363,P00734:364-622)
Assay: SPR; apparent; solution competition vs immobilized consensus aptamer; same buffer, 25 C

| Binder | Kd |
| --- | --- |
| GGTTGGTGTGGTTGG (structured_DNA) [Compound 10 (consensus thrombin aptamer)] | 6 nM |
| GGTTGGTT (ssDNA) [Compound 12 (single segment)] | 1500 nM |
